Laboratory results reported in publication PMC6208366 (2018).
Where two headings read alike, the source gives them in different places. Blank lines part the entries; values can stand above or below the binder they belong to.

Experiments:
[1] = target: T1, full-length human Tau (htau40, 441 residues, 2N4R) (human, UniProt P10636-8 1-441)
[2] = target: T1, full-length human Tau (htau40, 441 …); remark: listed apart in the source
human full-length Hsp90β = human full-length Hsp90β (human, UniProt P08238 1-724); assay: ITC
[3] = target: T1, full-length human Tau (htau40, 441 …); assay: Hsp90 in presence of FKBP51 (1:1)

Sequence of human full-length Hsp90β (P08238 whole entry): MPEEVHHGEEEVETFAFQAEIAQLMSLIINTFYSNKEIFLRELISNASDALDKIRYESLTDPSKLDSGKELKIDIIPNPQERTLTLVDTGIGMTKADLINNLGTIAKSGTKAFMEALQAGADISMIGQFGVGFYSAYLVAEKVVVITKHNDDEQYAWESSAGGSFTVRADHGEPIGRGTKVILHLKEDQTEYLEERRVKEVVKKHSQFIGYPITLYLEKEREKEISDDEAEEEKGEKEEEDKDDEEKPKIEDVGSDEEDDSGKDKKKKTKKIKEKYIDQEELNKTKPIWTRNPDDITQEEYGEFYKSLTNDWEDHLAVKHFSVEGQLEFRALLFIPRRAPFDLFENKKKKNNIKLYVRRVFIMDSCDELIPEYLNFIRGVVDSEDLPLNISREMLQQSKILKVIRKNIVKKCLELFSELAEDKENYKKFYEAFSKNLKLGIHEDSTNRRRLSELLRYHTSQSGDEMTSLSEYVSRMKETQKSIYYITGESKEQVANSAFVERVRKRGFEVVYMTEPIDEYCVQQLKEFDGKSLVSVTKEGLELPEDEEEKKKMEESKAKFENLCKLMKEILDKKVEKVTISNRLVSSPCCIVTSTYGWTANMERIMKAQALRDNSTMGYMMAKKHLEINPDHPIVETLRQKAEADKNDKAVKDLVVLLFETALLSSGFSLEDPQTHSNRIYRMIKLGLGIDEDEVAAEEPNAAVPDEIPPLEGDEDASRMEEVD

Kd [1]: 4.2 µM
B1: IANBD-labeled Hsp90 M362C (natural protein)
chain: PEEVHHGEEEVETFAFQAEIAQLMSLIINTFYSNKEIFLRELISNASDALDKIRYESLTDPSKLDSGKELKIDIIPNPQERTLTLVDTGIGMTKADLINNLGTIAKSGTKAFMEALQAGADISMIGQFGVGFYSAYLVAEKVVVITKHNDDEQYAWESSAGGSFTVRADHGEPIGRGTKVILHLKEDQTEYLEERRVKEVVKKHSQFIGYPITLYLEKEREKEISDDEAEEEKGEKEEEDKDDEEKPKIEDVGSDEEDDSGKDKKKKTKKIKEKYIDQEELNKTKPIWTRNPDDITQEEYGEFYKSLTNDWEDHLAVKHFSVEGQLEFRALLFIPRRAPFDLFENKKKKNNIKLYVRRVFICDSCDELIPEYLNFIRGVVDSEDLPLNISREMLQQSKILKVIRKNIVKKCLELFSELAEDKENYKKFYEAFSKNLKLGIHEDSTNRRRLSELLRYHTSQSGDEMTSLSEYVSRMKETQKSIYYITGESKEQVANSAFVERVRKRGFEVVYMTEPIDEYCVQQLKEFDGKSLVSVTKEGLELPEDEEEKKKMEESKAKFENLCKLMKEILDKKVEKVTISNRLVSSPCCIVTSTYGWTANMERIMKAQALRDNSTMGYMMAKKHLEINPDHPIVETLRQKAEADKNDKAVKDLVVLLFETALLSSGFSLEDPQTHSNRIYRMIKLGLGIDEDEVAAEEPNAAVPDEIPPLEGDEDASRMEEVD
modifications: IANBD amide fluorescent dye on Cys362 (M362C)

Kd [2]: 45.1 µM | Kd (human full-length Hsp90β): 0.249 µM
B2: full-length human FKBP51 (natural protein)
chain: MTTDEGAKNNEESPTATVAEQGEDITSKKDRGVLKIVKRVGNGEETPMIGDKVYVHYKGKLSNGKKFDSSHDRNEPFVFSLGKGQVIKAWDIGVATMKKGEICHLLCKPEYAYGSAGSLPKIPSNATLFFEIELLDFKGEDLFEDGGIIRRTKRKGEGYSNPNEGATVEIHLEGRCGGRMFDCRDVAFTVGEGEDHDIPIGIDKALEKMQREEQCILYLGPRYGFGEAGKPKFGIEPNAELIYEVTLKSFEKAKESWEMDTKEKLEQAAIVKEKGTVYFKGGKYMQAVIQYGKIVSWLEMEYGLSEKESKASESFLLAAFLNLAMCYLKLREYTKAVECCDKALGLDSANEKGLYRRGEAQLLMNEFESAKGDFEKVLEVNPQNKAARLQISMCQKKAKEHNERDRRIYANMFKKFAEQDAKEEANKAMGKKTSEGVTNEKGTDSQAMEEEKPEGHV

Kd [3]: 8.2 µM
B3: IANBD-labeled Hsp90 M362C/FKBP51 (1:1) complex (complex)
chain 1: not shown
chain 2: MTTDEGAKNNEESPTATVAEQGEDITSKKDRGVLKIVKRVGNGEETPMIGDKVYVHYKGKLSNGKKFDSSHDRNEPFVFSLGKGQVIKAWDIGVATMKKGEICHLLCKPEYAYGSAGSLPKIPSNATLFFEIELLDFKGEDLFEDGGIIRRTKRKGEGYSNPNEGATVEIHLEGRCGGRMFDCRDVAFTVGEGEDHDIPIGIDKALEKMQREEQCILYLGPRYGFGEAGKPKFGIEPNAELIYEVTLKSFEKAKESWEMDTKEKLEQAAIVKEKGTVYFKGGKYMQAVIQYGKIVSWLEMEYGLSEKESKASESFLLAAFLNLAMCYLKLREYTKAVECCDKALGLDSANEKGLYRRGEAQLLMNEFESAKGDFEKVLEVNPQNKAARLQISMCQKKAKEHNERDRRIYANMFKKFAEQDAKEEANKAMGKKTSEGVTNEKGTDSQAMEEEKPEGHV
modifications: IANBD amide fluorescent dye on Cys362 (M362C)
